The text below walks through data of patent publication US20240158494A1 (Biogen, published 2024).

Where two headings read alike, the source gives them in different places.

Experiment [1] addresses T1, cynomolgus monkey transferrin receptor 1 (TfR1), full length, expressed on cells (cynomolgus monkey, UniProt Q5RDH6 1-760 (Pongo abelii entry)).
T1 construct: also called cyno TfR1; cyTfR
In words: FACS on Ba/F3 cells, Fab supernatant.

Experiment [2] has as its target T2, human transferrin receptor 1 (TfR1), full length, expressed on cells (human, UniProt P02786 1-760).
T2 construct: also called human TfR1; huTfR
The experiment is described as follows: FACS on Ba/F3 cells, Fab supernatant.

In experiment [3] the target is T1, cynomolgus monkey transferrin receptor …. In words: FACS on Ba/F3 cells, Fab supernatant. The source holds these as a separate data set.
Experiment [4] concerns the target T2, human transferrin receptor 1 (TfR1), …. The experiment is described as follows: FACS on Ba/F3 cells, Fab supernatant. The source holds these as a separate data set.
The target in experiment [5] is T3, recombinant cynomolgus monkey TfR1 extracellular domain, His-tagged (cynomolgus monkey, UniProt Q5RDH6 87-760 (Pongo abelii entry)).
T3 construct: also called Cyno TfR1 ECD; cyno TfR1 ECD-His
In words: SPR, TfR1 ECD-His captured, Fab injected, 1:1 fit.

Experiment [6] deals with T4, recombinant human TfR1 extracellular domain, His-tagged (human, UniProt P02786 89-760).
T4 construct: also called Human TfR1 ECD; human TfR1 ECD-His
The experiment is described as follows: SPR, TfR1 ECD-His captured, Fab injected, 1:1 fit. In general terms: Surface plasmon resonance follows binding to a sensor surface in real time, without labels.

The term EC50 denotes the concentration at which the effect is half-maximal. Usually Kd stands for the equilibrium constant for the complex coming apart. The term koff denotes the first-order rate constant of dissociation. As usually defined, the kon is a measure of how fast the partners come together.

B1: TfRANTIBODY-B HC-H1(HA) hIgG1Fab′(1C/LC-L2 hKappa (Fab, V domains shown)
VH: QSLVESGGGVVQPGRSLRLSCAASGFSFSNSYWIHWVRQAPGKGLEWVAAINTDADSTNYADSVKGRFTISKDNSKNTVYLQMNSLRAEDTAVYYCARQNNVFDPGYNLWGQGTLVTVSS
VL: ELVLTQSPSTLSASVGDRVTITCRASQNIGSNLAWYQQKPGKAPKLLIYDASKLESGVPSRFSGSGSGTEFTLTISSLQPDDFATYYCQCTVRGGAYGNAFGGGTKVEIKR
notes: also called ANTIBODY-B H1(HA)/L2
Consider B1, for which the EC50 in experiment [1] came to 7.1 nM; in experiment [2], 18.2 nM.

B2: TfR1 ANTIBODY-B HC-H1 hIgG1 Fab′(1C)/LC-L2 hKappa (Fab, V domains shown)
VH: QSLVESGGGVVQPGRSLRLSCAASGFSFSNSYWIAWVRQAPGKGLEWVAAINTDADSTNYADSVKGRFTISKDNSKNTVYLQMNSLRAEDTAVYYCARQNNVFDPGYNLWGQGTLVTVSS
VL: ELVLTQSPSTLSASVGDRVTITCRASQNIGSNLAWYQQKPGKAPKLLIYDASKLESGVPSRFSGSGSGTEFTLTISSLQPDDFATYYCQCTVRGGAYGNAFGGGTKVEIKR
notes: also called ANTIBODY-B H1/L2
For the molecule B2, the EC50 in experiment [3] amounted to 4.9 nM; in experiment [4], 9.6 nM. In addition, the Kd in experiment [5] was found to be 12 nM; in experiment [6], 47.8 nM. For the same molecule, the figures for the koff in experiment [5] and in experiment [6] were 0.00105 s⁻¹ and 0.00453 s⁻¹, respectively. The kon in experiment [5] stood at 88300 M⁻¹ s⁻¹; in experiment [6], 94700 M⁻¹ s⁻¹.

B3: TfR1 ANTIBODY-B HC-H0 hIgG1 Fab′(1C)/LC-L2 hKappa (Fab, V domains shown)
VH: QVQLVESGGGVVQPGRSLRLSCAASGFSFSNSYWIAWVRQAPGKGLEWVAAINTDADSTNYADSVKGRFTISRDNSKNTLYLQMNSLRAEDTAVYYCARQNNVFDPGYNLWGQGTLVTVSS
VL: ELVLTQSPSTLSASVGDRVTITCRASQNIGSNLAWYQQKPGKAPKLLIYDASKLESGVPSRFSGSGSGTEFTLTISSLQPDDFATYYCQCTVRGGAYGNAFGGGTKVEIKR
notes: also called ANTIBODY-B H0/L2
Take B3: the EC50 in experiment [3] is 44.5 nM; in experiment [4] it was 168 nM.

B4: TfRANTIBODY-B HC-H1(SY) hIgG1Fab′(1C)/LC-L2 hKappa (Fab, V domains shown)
VH: QSLVESGGGVVQPGRSLRLSCAASGFSFSNSYWISWVRQAPGKGLEWVAYINTDADSTNYADSVKGRFTISKDNSKNTVYLQMNSLRAEDTAVYYCARQNNVFDPGYNLWGQGTLVTVSS
VL: ELVLTQSPSTLSASVGDRVTITCRASQNIGSNLAWYQQKPGKAPKLLIYDASKLESGVPSRFSGSGSGTEFTLTISSLQPDDFATYYCQCTVRGGAYGNAFGGGTKVEIKR
notes: also called ANTIBODY-B H1(SY)/L2
Turning to B4, the EC50 in experiment [1] was above 55 nM; in experiment [2], 113 nM.

B5: TfRANTIBODY-B HC-H1(SR) hIgG1Fab′(1C)/LC-L2 hKappa (Fab, V domains shown)
VH: QSLVESGGGVVQPGRSLRLSCAASGFSFSNSYWISWVRQAPGKGLEWVARINTDADSTNYADSVKGRFTISKDNSKNTVYLQMNSLRAEDTAVYYCARQNNVFDPGYNLWGQGTLVTVSS
VL: ELVLTQSPSTLSASVGDRVTITCRASQNIGSNLAWYQQKPGKAPKLLIYDASKLESGVPSRFSGSGSGTEFTLTISSLQPDDFATYYCQCTVRGGAYGNAFGGGTKVEIKR
notes: also called ANTIBODY-B H1(SR)/L2
As to B5, the binding result in experiment [1] and in experiment [2] was “no binding” throughout.

B6: TfRANTIBODY-B HC-H1(SV) hIgG1Fab′(1C)/LC-L2 hKappa (Fab, V domains shown)
VH: QSLVESGGGVVQPGRSLRLSCAASGFSFSNSYWISWVRQAPGKGLEWVAVINTDADSTNYADSVKGRFTISKDNSKNTVYLQMNSLRAEDTAVYYCARQNNVFDPGYNLWGQGTLVTVSS
VL: ELVLTQSPSTLSASVGDRVTITCRASQNIGSNLAWYQQKPGKAPKLLIYDASKLESGVPSRFSGSGSGTEFTLTISSLQPDDFATYYCQCTVRGGAYGNAFGGGTKVEIKR
notes: also called ANTIBODY-B H1(SV)/L2
B6: the EC50 in experiment [1] stood at 30 nM; in experiment [2], 98.6 nM.

B7: TfR1 ANTIBODY-B HC-H3 hIgG1 Fab′(1C)/LC-L2 hKappa (Fab, V domains shown)
VH: QSLVESGGGVVQPGRSLRLSCAASGFSFSNSYWIAWVRQAPGKGLEWVAAINTDADSTNYASWARGRFTISKDNSKNTLYLQMNSLRAEDTAVYYCARQNNVFDPGYNLWGQGTLVTVSS
VL: ELVLTQSPSTLSASVGDRVTITCRASQNIGSNLAWYQQKPGKAPKLLIYDASKLESGVPSRFSGSGSGTEFTLTISSLQPDDFATYYCQCTVRGGAYGNAFGGGTKVEIKR
notes: also called ANTIBODY-B H3/L2
Regarding B7, the EC50 in experiment [3] amounted to 5.7 nM. Further, the response in experiment [4] was half-maximal at 15.7 nM (EC50). Besides, in experiment [5], the Kd stood at 12 nM, the koff was found to be 0.00172 s⁻¹ and the on-rate constant (kon) turned out to be 143000 M⁻¹ s⁻¹. Further, in experiment [6], the Kd is 65 nM, the koff was 0.00595 s⁻¹ and the kon was 91500 M⁻¹ s⁻¹.
